Results from paper PMC3161980.
Several values for one entry are separate records, joined by “and”; a condition that tells them apart may be missing. Identical values can stand only once.

Molecular target: plate-bound HA
Test: ELISA

NKp30-Fc: long (canonical) ectodomain of NKp30 fused to the Fc portion of human IgG1 (from UniProt O14931 19-135) (Fc fusion)
fold stronger ELISA labeling than NKp46-Fc: 1.5 fold and 2 fold
